Laboratory results from patent publication US20240391979A1 (ACHELOIS BIOPHARMA, published 2024).

How the values were obtained:
[1] = molecular target: Small Hepatitis B surface Antigen (S-HBsAg), HBV subtype ayw (Hepatitis B virus, subtype ayw, UniProt P03138 1-226); test: cell-based or functional assay
[2] = molecular target: Small Hepatitis B surface Antigen (S-HBsAg), HBV subtype not stated (Hepatitis B virus); test: cell-based or functional assay

Small Hepatitis B surface Antigen (S-HBsAg), HBV subtype ayw, sequence (P03138 164-389): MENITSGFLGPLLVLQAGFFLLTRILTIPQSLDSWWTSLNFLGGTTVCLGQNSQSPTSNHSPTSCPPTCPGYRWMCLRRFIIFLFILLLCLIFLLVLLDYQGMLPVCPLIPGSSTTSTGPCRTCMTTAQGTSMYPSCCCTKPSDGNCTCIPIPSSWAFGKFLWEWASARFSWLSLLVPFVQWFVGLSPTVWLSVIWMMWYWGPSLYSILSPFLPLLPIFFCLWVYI

B1: bivalent, soluble H015 (antibody, V domains shown)
VH: QVQLVESGGGVAQPGRSLRLSCAASGFSFSRHGMHWVRQAPGKGLEWVAGIWFDGTNDYYTDSVKGRFTISRDNSRSTLYLDINSLRAEDTAVYYCAREDPHLLIATLDLWGLGTLVTVSS
VL: DIQVTQSPSSLSAFVGDRVTITCRASQGLTSFINWYQQKPGRAPKLLISSASSLQRGVPSRFTASGSGTHFTLTISSLQPEDFATYYCQQSYGTPALAFGGGTKVDIK
IC50, in vitro HBV neutralization assay, HepG2-NTCP cells, ayw subtype [1]: 0.0836 nM
IC50, in vitro HDV neutralization in primary human hepatocytes (HDV RNA) [2]: 0.113 nM
